Measurements reported in the supplement of paper PMC10724198.
± gives the standard deviation of the averaged measurements.

Experiments:
Test in all cases: protein stability index of tFT-peptide fusion (C-terminal peptide) (PSI (0-1 scale)); higher = more stable (slower turnover)
Saccharomyces cerevisiae [1] = conditions: temperature: 30 C
Procedure: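 MPS profiling in S. cerevisiae of the yeast C-terminome library: the last 12 aa of each annotated ORF are fused to the C-terminus of a sfGFP-mCherry timer, after a GGGS linker. Cells are FACS-sorted into 8 mCherry/sfGFP bins and deep-sequenced. PSI runs from 0 (unstable) to 1 (stable); wild type and das1Δ backgrounds, two technical replicates each.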

Saccharomyces cerevisiae [2] = system: Saccharomyces cerevisiae
Procedure: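 MPS profiling in S. cerevisiae of the tFT-X12 degron library: putative degron peptides plus stable controls, 12 aa, fused to the C-terminus of a sfGFP-mCherry timer. Cells are FACS-sorted into 8 mCherry/sfGFP bins and deep-sequenced. PSI runs from 0 (unstable) to 1 (stable). Backgrounds are wild type, das1Δ and doa10Δ at 30 °C, and wild type, das1Δ, cdc34-1 and cdc53-1 at 37 °C; 2-3 technical replicates each.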

Saccharomyces cerevisiae [3] = conditions: genetic background: wild type; temperature: 30 C
[4] = genetic background: das1 deletion
[5] = genetic background: cdc34-1, temperature: 37 C
[6] = genetic background: cdc53-1, temperature: 37 C
[7] = genetic background: das1 deletion, temperature: 30 C
[8] = genetic background: das1 deletion, temperature: 37 C
[9] = genetic background: doa10 deletion, temperature: 30 C
[10] = genetic background: wild type, temperature: 30 C
[11] = genetic background: wild type, temperature: 37 C

Sequence | protein stability index (Saccharomyces cerevisiae [1]; [4]) | protein stability index (Saccharomyces cerevisiae [1]; genetic background: wild type) | protein stability index (Saccharomyces cerevisiae [2]; [5]) | protein stability index (Saccharomyces cerevisiae [2]; [6]) | protein stability index (Saccharomyces cerevisiae [2]; [7]) | protein stability index (Saccharomyces cerevisiae [2]; [8]) | protein stability index (Saccharomyces cerevisiae [2]; [9]) | protein stability index (Saccharomyces cerevisiae [2]; [10]) | protein stability index (Saccharomyces cerevisiae [2]; [11]) | protein stability index (Saccharomyces cerevisiae [3])
NFWNTGSAIFMQ [YHR069C-A C-terminal 12 aa] | 0.7347 ± 0.0017 | 0.719 ± 0.029 | – | – | – | – | – | – | – | –
AMDYAISIENIV [RPN12 C-terminal 12 aa] | 0.665 ± 0.015 | 0.646 ± 0.015 | – | – | – | – | – | – | – | –
SISHPENKVLHK [YNL195C C-terminal 12 aa] | 0.689 ± 0.0083 | 0.699 ± 0.0077 | – | – | – | – | – | – | – | –
QEQQNLRQKQPN [YBL029C-A C-terminal 12 aa] | 0.704 ± 0.01 | 0.7093 ± 0.0059 | – | – | – | – | – | – | – | –
SRVGRKVATLDQ [YAT2 C-terminal 12 aa] | 0.6994 ± 0.0069 | 0.694 ± 0.038 | – | – | – | – | – | – | – | –
LANFSNEVAMNN [SWP82 C-terminal 12 aa] | 0.696 ± 0.017 | 0.738 ± 0.13 | – | – | – | – | – | – | – | –
EPYNIKYSNSKK [MSD1 C-terminal 12 aa] | 0.7 ± 0.03 | 0.66695 ± 2.1e-06 | – | – | – | – | – | – | – | –
LYEHGIKKFDDL [JIP5 C-terminal 12 aa] | 0.674 ± 0.029 | 0.721 ± 0.039 | – | – | – | – | – | – | – | –
LCFSKDIQLDFQ [FIG4 C-terminal 12 aa] | 0.714 ± 0.013 | 0.672 ± 0.043 | – | – | – | – | – | – | – | –
NHSSSGNKHDEL [MPD1 C-terminal 12 aa] | 0.657 ± 0.0067 | 0.686 ± 0.035 | – | – | – | – | – | – | – | –
WEVVTGIRKLLI [PEX12 C-terminal 12 aa] | 0.68 ± 0.008 | 0.401 ± 0.014 | – | – | – | – | – | – | – | –
ELNEEKRRSALP [SAK1 C-terminal 12 aa] | 0.687 ± 0.023 | 0.686 ± 0.016 | – | – | – | – | – | – | – | –
VSFGELGVEVVG | – | – | 0.709 ± 0.022 | 0.735 ± 0.041 | 0.529 ± 0.017 | 0.736 ± 0.017 | 0.538 ± 0.014 | 0.559 ± 0.018 | 0.7148 ± 0.0022 | 0.451 ± 0.022
LGVLVVAFCGGC | – | – | 0.488 ± 0.041 | 0.554 ± 0.0076 | 0.354 ± 0.034 | 0.541 ± 0.0069 | 0.325 ± 0.017 | 0.347 ± 0.023 | 0.5327 ± 0.00083 | 0.409 ± 0.031
AVVCSRLVLFCL | – | – | 0.591 ± 0.042 | 0.609 ± 0.021 | 0.53 ± 0.016 | 0.6322 ± 0.0018 | 0.433 ± 0.018 | 0.446 ± 0.025 | 0.588 ± 0.021 | 0.512 ± 0.026
SFTPPRVCLCFS | – | – | 0.465 ± 0.04 | 0.503 ± 0.008 | 0.319 ± 0.029 | 0.5205 ± 0.0047 | 0.2778 ± 0.002 | 0.3 ± 0.024 | 0.496 ± 0.02 | 0.3999 ± 0.0022
YILLRWVNLSCL | – | – | 0.524 ± 0.012 | 0.587 ± 0.013 | 0.488 ± 0.022 | 0.645 ± 0.0099 | 0.149 ± 0.017 | 0.156 ± 0.021 | 0.283 ± 0.0069 | 0.236 ± 0.062
SCLSYRTRLLAF | – | – | 0.52 ± 0.045 | 0.617 ± 0.011 | 0.477 ± 0.019 | 0.587 ± 0.0083 | 0.406 ± 0.0086 | 0.41 ± 0.014 | 0.504 ± 0.011 | 0.49 ± 0.0059
GCLFMQVSLFWR | – | – | 0.0959 ± 0.027 | 0.164 ± 0.018 | 0.147 ± 0.038 | 0.295 ± 0.023 | 0.177 ± 0.0049 | 0.138 ± 0.044 | 0.26 ± 0.017 | 0.286 ± 0.028
SFQLVFLCVLIW | – | – | 0.136 ± 0.0088 | 0.129 ± 0.008 | 0.155 ± 0.024 | 0.237 ± 0.0049 | 0.203 ± 0.011 | 0.154 ± 0.0091 | 0.184 ± 0.011 | 0.218 ± 0.029
LGFSHTRAIFFV | – | – | 0.651 ± 0.039 | 0.7312 ± 0.0055 | 0.605 ± 0.012 | 0.724 ± 0.0022 | 0.186 ± 0.01 | 0.213 ± 0.0094 | 0.396 ± 0.0071 | 0.307 ± 0.011

Sequence | protein stability index (Saccharomyces cerevisiae [1]; [4]) | protein stability index (Saccharomyces cerevisiae [1]; genetic background: wild type) | protein stability index (Saccharomyces cerevisiae [2]; [5]) | protein stability index (Saccharomyces cerevisiae [2]; [6]) | protein stability index (Saccharomyces cerevisiae [2]; [7]) | protein stability index (Saccharomyces cerevisiae [2]; [8]) | protein stability index (Saccharomyces cerevisiae [2]; [9]) | protein stability index (Saccharomyces cerevisiae [2]; [10]) | protein stability index (Saccharomyces cerevisiae [2]; [11]) | protein stability index (Saccharomyces cerevisiae [3])
VFKLGWVLCVLL | – | – | 0.286 ± 0.027 | 0.386 ± 0.0098 | 0.286 ± 0.01 | 0.389 ± 0.011 | 0.152 ± 0.0011 | 0.165 ± 0.0049 | 0.3 ± 0.0072 | 0.208 ± 0.024
NLTAIIYTLVVD | – | – | 0.2313 ± 0.0018 | 0.466 ± 0.23 | 0.218 ± 0.032 | 0.444 ± 0.018 | 0.197 ± 0.016 | 0.225 ± 0.028 | 0.3944 ± 0.00021 | 0.31 ± 0.015
CSPAFRPIVFVL | – | – | 0.2771 ± 0.00097 | 0.2732 ± 0.00067 | 0.301 ± 0.026 | 0.407 ± 0.013 | 0.1802 ± 0.00032 | 0.163 ± 0.016 | 0.176 ± 0.0079 | 0.225 ± 0.013
VFLLFFFGLFVF | – | – | 0.348 ± 0.02 | 0.385 ± 0.0091 | 0.295 ± 0.037 | 0.418 ± 0.025 | 0.356 ± 0.043 | 0.314 ± 0.007 | 0.414 ± 0.035 | 0.415 ± 0.041
ALLIYFLCRCIP | – | – | 0.4326 ± 0.00094 | 0.476 ± 0.011 | 0.343 ± 0.033 | 0.522 ± 0.016 | 0.301 ± 0.015 | 0.33 ± 0.035 | 0.483 ± 0.032 | 0.44 ± 0.034
VVFSLLLWLFIS | – | – | 0.256 ± 0.022 | 0.405 ± 0.024 | 0.316 ± 0.047 | 0.47 ± 0.0075 | 0.161 ± 0.003 | 0.168 ± 0.018 | 0.194 ± 0.0057 | 0.216 ± 0.029
WFSRCVSLGLCW | – | – | 0.2808 ± 0.0017 | 0.3093 ± 0.0024 | 0.29 ± 0.019 | 0.398 ± 0.018 | 0.274 ± 0.012 | 0.302 ± 0.029 | 0.363 ± 0.017 | 0.4176 ± 0.0036
PFFLLAGITVAC | – | – | 0.0507 ± 0.023 | 0.0625 ± 0.026 | 0.177 ± 0.031 | 0.203 ± 0.0027 | 0.139 ± 0.0038 | 0.15 ± 0.025 | 0.16 ± 0.0058 | 0.273 ± 0.016
WFSMSRLWVFYS | – | – | 0.415 ± 0.043 | 0.637 ± 0.018 | 0.619 ± 0.028 | 0.729 ± 0.045 | 0.1047 ± 0.00079 | 0.0847 ± 0.027 | 0.106 ± 0.024 | 0.217 ± 0.082
LLSGHFRLLLAF | – | – | 0.0523 ± 0.014 | 0.149 ± 0.007 | 0.178 ± 0.02 | 0.23 ± 0.013 | 0.0793 ± 0.0067 | 0.0945 ± 0.014 | 0.108 ± 0.02 | 0.136 ± 0.029
VSGEWSFLVRVQ | – | – | 0.548 ± 0.026 | 0.573 ± 0.0061 | 0.452 ± 0.025 | 0.61 ± 0.027 | 0.392 ± 0.0066 | 0.411 ± 0.024 | 0.554 ± 0.012 | 0.39 ± 0.15
GAVKCLVCLAVW | – | – | 0.282 ± 0.0035 | 0.365 ± 0.054 | 0.309 ± 0.032 | 0.4138 ± 0.0017 | 0.26 ± 0.011 | 0.3 ± 0.026 | 0.3844 ± 0.00071 | 0.404 ± 0.022
QNVKRIVRHMLT | – | – | 0.62 ± 0.056 | 0.691 ± 0.041 | 0.658 ± 0.008 | 0.723 ± 0.04 | 0.207 ± 0.018 | 0.251 ± 0.022 | 0.41 ± 0.027 | 0.374 ± 0.018
QWRMLTCLMERL | – | – | 0.446 ± 0.034 | 0.553 ± 0.063 | 0.472 ± 0.015 | 0.4882 ± 0.0037 | 0.398 ± 0.056 | 0.379 ± 0.012 | 0.496 ± 0.03 | 0.379 ± 0.012
GLFAVWVVGVWC | – | – | 0.0437 ± 0.0013 | 0.137 ± 0.052 | 0.139 ± 0.031 | 0.219 ± 0.0058 | 0.0955 ± 0.013 | 0.111 ± 0.045 | 0.202 ± 0.011 | 0.212 ± 0.052
FFVISVVLCLLV | – | – | 0.377 ± 0.015 | 0.48 ± 0.016 | 0.341 ± 0.022 | 0.447 ± 0.022 | 0.325 ± 0.0033 | 0.344 ± 0.019 | 0.434 ± 0.015 | 0.43 ± 0.0088
PFPTPPPIPRSP | – | – | 0.665 ± 0.012 | 0.7375 ± 0.0026 | 0.686 ± 0.015 | 0.729 ± 0.0085 | 0.706 ± 0.035 | 0.696 ± 0.012 | 0.7051 ± 0.0068 | 0.464 ± 0.05
TFRVLAFFCRVV | – | – | 0.453 ± 0.0089 | 0.538 ± 0.015 | 0.47 ± 0.03 | 0.616 ± 0.059 | 0.308 ± 0.0053 | 0.286 ± 0.025 | 0.3902 ± 0.0029 | 0.367 ± 0.012
TSLPPSPPPSPT | – | – | 0.682 ± 0.016 | 0.713 ± 0.17 | 0.392 ± 0.044 | 0.563 ± 0.0085 | 0.373 ± 0.014 | 0.392 ± 0.012 | 0.562 ± 0.033 | 0.476 ± 0.025
LCFGMVELMWIY | – | – | 0.418 ± 0.057 | 0.52 ± 0.071 | 0.388 ± 0.046 | 0.521 ± 0.011 | 0.371 ± 0.047 | 0.377 ± 0.037 | 0.471 ± 0.018 | 0.458 ± 0.0053
LCVVVICCLMAR | – | – | 0.097 ± 0.025 | 0.198 ± 0.055 | 0.123 ± 0.036 | 0.265 ± 0.0071 | 0.0806 ± 0.015 | 0.125 ± 0.026 | 0.216 ± 0.012 | 0.279 ± 0.05
